± gives the standard deviation of the averaged measurements.
Experiment: total protein half-life in vivo (active degradation + dilution); higher = more stable protein
[1] = E. coli NCM3722 delta-clpP delta-lon delta-hslV, growth: N-lim chemostat, doubling time 6 h
[2] = E. coli NCM3722 delta-clpP, growth: N-lim chemostat, doubling time 6 h
[3] = E. coli NCM3722 delta-hslV, growth: N-lim chemostat, doubling time 6 h
[4] = E. coli NCM3722 delta-lon, growth: N-lim chemostat, doubling time 6 h
[5] = E. coli NCM3722 delta-smpB, growth: N-lim chemostat, doubling time 6 h
[6] = wild type E. coli NCM3722, growth: C-lim chemostat, doubling time 3 h
[7] = wild type E. coli NCM3722, growth: C-lim chemostat, doubling time 6 h
[8] = wild type E. coli NCM3722, growth: C-lim chemostat, doubling time 12 h
[9] = wild type E. coli NCM3722, growth: N-lim chemostat, doubling time 6 h
[10] = wild type E. coli NCM3722, growth: N-lim chemostat, doubling time 12 h
[11] = wild type E. coli NCM3722, growth: P-lim chemostat, doubling time 6 h
[12] = wild type E. coli NCM3722, growth: P-lim chemostat, doubling time 12 h

Sequence | total protein half-life in vivo [1] | total protein half-life in vivo [2] | total protein half-life in vivo [3] | total protein half-life in vivo [4] | total protein half-life in vivo [5] | total protein half-life in vivo [6] | total protein half-life in vivo [7] | total protein half-life in vivo [8] | total protein half-life in vivo [9] | total protein half-life in vivo [10] | total protein half-life in vivo [11] | total protein half-life in vivo [12]
MSIDWNWGIFLQQAPFGNTTYLGWIWSGFQVTIALSICAWIIAFLVGSFFGILRTVPNRFLSGLGTLYVELFRNVPLIVQFFTWYLVIPELLPEKIGMWFKAELDPNIQFFLSSMLCLGLFTAARVCEQVRAAIQSLPRGQKNAALAMGLTLPQAYRYVLLPNAYRVIVPPMTSEMMNLVKNSAIASTIGLVDMAAQAGKLLDYSAHAWESFTAITLAYVLINAFIMLVMTLVERKVRLPGNMGGK [P0AER3] | 6.3 ± 0.68 h | 5.73 ± 0.57 h | 7.02 ± 1.3 h | 6.414 ± 0.029 h | 5.64 ± 0.34 h | 3.1 ± 0.078 h | 5.71 ± 1.4 h | 12.4 h | 5.35 ± 0.4 h | 12.1 ± 4.6 h | 6.73 h | 12.4 ± 1.9 h
MPQSALFTGIIPPVSTIFTADGQLDKPGTAALIDDLIKAGVDGLFFLGSGGEFSQLGAEERKAIARFAIDHVDRRVPVLIGTGGTNARETIELSQHAQQAGADGIVVINPYYWKVSEANLIRYFEQVADSVTLPVMLYNFPALTGQDLTPALVKTLADSRSNIIGIKDTIDSVAHLRSMIHTVKGAHPHFTVLCGYDDHLFNTLLLGGDGAISASGNFAPQVSVNLLKAWRDGDVAKAAGYHQTLLQIPQMYQLDTPFVNVIKEAIVLCGRPVSTHVLPPASPLDEPRKAQLKTLLQQLKLC |  |  | 3.07 h |  |  |  |  |  |  |  |  | 
MTPEHLPTEQYEAQLAEKVVRLQSMMAPFSDLVPEVFRSPVSHYRMRAEFRIWHDGDDLYHIIFDQQTKSRIRVDSFPAASELINQLMTAMIAGVRNNPVLRHKLFQIDYLTTLSNQAVVSLLYHKKLDDEWRQEAEALRDALRAQNLNVHLIGRATKTKIELDQDYIDERLPVAGKEMIYRQVENSFTQPNAAMNIQMLEWALDVTKGSKGDLLELYCGNGNFSLALARNFDRVLATEIAKPSVAAAQYNIAANHIDNVQIIRMAAEEFTQAMNGVREFNRLQGIDLKSYQCETIFVDPPRSGLDSETEKMVQAYPRILYISCNPETLCKNLETLSQTHKVERLALFDQFPYTHHMECGVLLTAK | 6.08 ± 1.6 h | 5.19 ± 0.62 h | 4.85 ± 0.33 h | 5.53 ± 0.082 h | 5.35 ± 0.35 h |  | 6.89 ± 0.74 h | 12.6 ± 2.2 h | 4.83 ± 0.21 h | 11.3 ± 2.8 h | 5.56 ± 0.39 h | 13.8 ± 1.9 h
MLERLSWKRLVLELLLCCLPAFILGAFFGYLPWFLLASVTGLLIWHFWNLLRLSWWLWVDRSMTPPPGRGSWEPLLYGLHQMQLRNKKRRRELGNLIKRFRSGAESLPDAVVLTTEEGGIFWCNGLAQQILGLRWPEDNGQNILNLLRYPEFTQYLKTRDFSRPLNLVLNTGRHLEIRVMPYTHKQLLMVARDVTQMHQLEGARRNFFANVSHELRTPLTVLQGYLEMMNEQPLEGAVREKALHTMREQTQRMEGLVKQLLTLSKIEAAPTHLLNEKVDVPMMLRVVEREAQTLSQKKQTFTFEIDNGLKVSGNEDQLRSAISNLVYNAVNHTPEGTHITVRWQRVPHGAEFSVEDNGPGIAPEHIPRLTERFYRVDKARSRQTGGSGLGLAIVKHAVNHHESRLNIESTVGKGTRFSFVIPERLIAKNSD | 6.39 ± 0.09 h | 6.38 ± 0.28 h | 5.95 ± 1.3 h |  | 6.31 ± 0.26 h | 3.118 ± 0.019 h | 5.82 ± 0.35 h | 12.3 ± 1.7 h | 6.4435 ± 0.0015 h | 12.7 ± 2 h | 6.19 ± 0.21 h | 12.2 ± 0.24 h
MNYHQYYPVDIVNGPGTRCTLFVSGCVHECPGCYNKSTWRVNSGQPFTKAMEDQIINDLNDTRIKRQGISLSGGDPLHPQNVPDILKLVQRIRAECPGKDIWVWTGYKLDELNAAQMQVVDLINVLVDGKFVQDLKDPSLIWRGSSNQVVHHLR [P0A9N8] |  | 1.08 h |  |  |  |  |  | 2.03 h |  |  |  | 
MSNRKYFGTDGIRGRVGDAPITPDFVLKLGWAAGKVLARHGSRKIIIGKDTRISGYMLESALEAGLAAAGLSALFTGPMPTPAVAYLTRTFRAEAGIVISASHNPFYDNGIKFFSIDGTKLPDAVEEAIEAEMEKEISCVDSAELGKASRIVDAAGRYIEFCKATFPNELSLSELKIVVDCANGATYHIAPNVLRELGANVIAIGCEPNGVNINAEVGATDVRALQARVLAEKADLGIAFDGDGDRVIMVDHEGNKVDGDQIMYIIAREGLRQGQLRGGAVGTLMSNMGLELALKQLGIPFARAKVGDRYVLEKMQEKGWRIGAENSGHVILLDKTTTGDGIVAGLQVLAAMARNHMSLHDLCSGMKMFPQILVNVRYTAGSGDPLEHESVKAVTAEVEAALGNRGRVLLRKSGTEPLIRVMVEGEDEAQVTEFAHRIADAVKAV | 6.02 ± 0.36 h | 6.03 ± 0.15 h | 5.92 ± 0.21 h | 6.65 ± 0.13 h | 5.71 ± 0.24 h | 3.24 ± 0.19 h | 6.27 ± 0.035 h | 12.62 ± 0.093 h | 6.08 ± 0.13 h | 11.8 ± 0.54 h | 6.24 ± 0.16 h | 13.8 ± 0.27 h
MKTLNRRDFPGAQYPERIIQFGEGNFLRAFVDWQIDLLNEHTDLNSGVVVVRPIETSFPPSLSTQDGLYTTIIRGLNEKGEAVSDARLIRSVNREISVYSEYDEFLKLAHNPEMRFVFSNTTEAGISYHAGDKFDDAPAVSYPAKLTRLLFERFSHFNGALDKGWIIIPCELIDYNGDALRELVLRYAQEWALPEAFIQWLDQANSFCSTLVDRIVTGYPRDEVAKLEEELGYHDGFLDTAEHFYLFVIQGPKSLATELRLDKYPLNVLIVDDIKPYKERKVAILNGAHTALVPVAFQAGLDTVGEAMNDAEICAFVEKAIYEEIIPVLDLPRDELESFASAVTGRFRNPYIKHQLLSIALNGMTKFRTRILPQLLAGQKANGTLPARLTFALAALIAFYRGERNGETYPVQDDAHWLERYQQLWSQHRDRVIGTQELVAIVLAEKDHWEQDLTQVPGLVEQVANDLDAILEKGMREAVRPLC [P0A6L7] |  |  |  |  |  | 3.15 ± 0.18 h | 4.58 ± 0.071 h | 8.15 ± 1.3 h |  |  | 5.26 ± 0.51 h | 
MRKIVAMAVICLTAASGLTSAYAAQLADDEAGLRIRLKNELRRADKPSAGAGRDIYAWVQGGLLDFNSGYYSNIIGVEGGAYYVYKLGARADMSTRWYLDGDKSFGFALGAVKIKPSENSLLKLGRFGTDYSYGSLPYRIPLMAGSSQRTLPTVSEGALGYWALTPNIDLWGMWRSRVFLWTDSTTGIRDEGVYNSQTGKYDKHRARSFLAASWHDDTSRYSLGASVQKDVSNQIQSILEKSIPLDPNYTLKGELLGFYAQLEGLSRNTSQPNETALVSGQLTWNAPWGSVFGSGGYLRHAMNGAVVDTDIGYPFSLSLDRNREGMQSWQLGVNYRLTPQFTLTFAPIVTRGYESSKRDVRIEGTGILGGMNYRVSEGPLQGMNFFLAADKGREKRDGSTLGDRLNYWDVKMSIQYDFMLK |  |  |  |  |  | 3.55 ± 0.51 h | 7.84 h | 11.5 ± 2 h |  |  |  | 
MKYVDGFVVAVPADKKDAYREMAAKAAPLFKEFGALRIVECWASDVPDGKVTDFRMAVKAEENEEVVFSWIEYPSKEVRDAANQKMMSDPRMKEFGESMPFDGKRMIYGGFESIIDE [P0AAQ6] | 4.294 ± 0.022 h | 2.69 ± 0.41 h | 3.26 ± 1.4 h | 3.82 ± 0.1 h | 1.51 ± 0.073 h |  | 2.63 ± 0.71 h | 2.54 ± 0.65 h | 2.14 h | 2.62 ± 0.04 h | 3.082 ± 0.03 h | 6.13 ± 0.85 h

Source: the supplement of paper PMC11246515
